2 substances from paper PMC7943195 can be followed below.

Experiment [1] concerns the target A. baumannii 19606 PBP1B (Acinetobacter baumannii 19606 (ATCC)).
In experiment [2] the target is P. aeruginosa PBP1B (Pseudomonas aeruginosa).

“A. baumannii 19606 LpoP(sol) (natural protein)” came in with a fold stimulation of the glycosyltransferase rate (dansyl-lipid II assay) with 0.5 µM LpoP^Ab(sol), Triton X-100-solubilised PBP1B^Ab in experiment [1] of 3.3 fold.
In the case of “P. aeruginosa LpoP(sol) (natural protein)”, in experiment [2], the fold increase of the final FRET with 2 µM LpoP^Pa(sol), PBP1B^Pa in liposomes stood at 2.2 fold and the fold increase of the final FRET with 2 µM LpoP^Pa(sol), Triton X-100-solubilised PBP1B^Pa stood at 2.1 fold.
